According to article PMC9458457, “Processing oxidatively damaged bases at DNA strand breaks by APE1”:

Target: dAPE1 C138A E96Q/D210N (crystallization) (human, UniProt P27695 44-318, E96Q;C138A;D210N;del1-43)
Test: X-ray crystallography; 5 mM CaCl2 in reservoir; Anisotropy: 50 mM HEPES pH 7.4, 100 mM KCl, 5% glycerol, 20 mM EDTA, 37 C, 10 nM DNA. Crystals: 7-14% PEG 20K, 100 mM sodium citrate pH 5.0, 15% glycerol, 5 mM
Details: protein: recombinant; tags: untagged; nicked duplex, blunt ends; 8-oxoG opposite C (strand 1 position 12)

Sequence of dAPE1 C138A E96Q/D210N (crystallization) (P27695 44-318 E96Q/C138A/D210N): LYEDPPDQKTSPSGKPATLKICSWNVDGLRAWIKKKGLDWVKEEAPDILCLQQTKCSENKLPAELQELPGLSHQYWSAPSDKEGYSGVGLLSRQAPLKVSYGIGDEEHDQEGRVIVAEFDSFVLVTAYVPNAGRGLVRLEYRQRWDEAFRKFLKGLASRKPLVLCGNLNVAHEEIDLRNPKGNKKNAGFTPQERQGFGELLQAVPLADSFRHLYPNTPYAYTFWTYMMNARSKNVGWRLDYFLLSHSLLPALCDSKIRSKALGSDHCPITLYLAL

B1: 21-mer nicked 3'-8-oxoG opposite C (crystal) (mixed)
DNA 1: GGATCCGTCGACCGCATCAGC
DNA 2: GCTGATGCGG
DNA 3: TCGACGGATCC
modifications: 8-oxoG at 3' end of strand 2 (position 10, written G); 5'-phosphate on strand 3
Does B1 bind?
Result: binds
